Results from patent US20230357348A1 (AstraZeneca / MedImmune, published 2023).
Starred links: 1 amine or outer side, 2 acyl side, 3 side chain; linkers in the order of their positions; H or OH if unused. Non-standard residues stand in square brackets, D forms with d. Groups on a side chain read outwards from the residue. No end group written: not given here. *: point of attachment. β‑dimethylGln = β-dimethylglutamine, CC(C)(CC(N)=O)[C@H](N[*:1])C(=O)[*:2]; C20 diacid = O=C(O)CCCCCCCCCCCCCCCCCCC(=O)*; C18 diacid = O=C(O)CCCCCCCCCCCCCCCCC(=O)*; γGlu = O=C(O)[C@H](CCC(=O)[*:2])N[*:1]; αMeF = C[C@](N)(Cc1ccccc1)C(=O)O; NMeQ = CN[C@@H](CCC(N)=O)C(=O)O; AEEA = NCCOCCOCC(=O)O; Aib = CC(C)(N)C(=O)O

Assays:
Experiment in all cases: cell-based or functional assay
human GLP-1 receptor = human GLP-1 receptor (human, UniProt P43220 24-463)
human glucagon receptor = human glucagon receptor (human, UniProt P47871 26-477)
Sequence of human glucagon receptor (P47871 26-477): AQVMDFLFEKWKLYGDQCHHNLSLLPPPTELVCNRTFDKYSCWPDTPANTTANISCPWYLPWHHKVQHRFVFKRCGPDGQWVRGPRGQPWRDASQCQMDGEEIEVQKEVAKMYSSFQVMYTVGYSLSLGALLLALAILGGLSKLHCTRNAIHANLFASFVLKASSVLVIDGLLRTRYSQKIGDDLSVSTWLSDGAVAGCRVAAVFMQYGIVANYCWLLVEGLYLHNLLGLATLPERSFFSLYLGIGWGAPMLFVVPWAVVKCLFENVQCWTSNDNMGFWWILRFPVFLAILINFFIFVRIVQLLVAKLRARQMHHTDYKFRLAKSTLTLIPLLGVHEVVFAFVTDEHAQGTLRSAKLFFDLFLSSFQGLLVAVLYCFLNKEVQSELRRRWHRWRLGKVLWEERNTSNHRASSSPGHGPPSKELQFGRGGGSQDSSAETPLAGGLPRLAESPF

[1] = target: human GLP-1 receptor (hGLP-1R) (human, UniProt P43220 24-463)

Binder	hGLP-1R EC50 (pM), cAMP (human GLP-1 receptor)	hGluc-R EC50 (pM), cAMP (human glucagon receptor)	hGLP-1R EC50 (pM); cAMP production [1]
H[Aib]QGTFTSDVSK[αMeF]LDSERAK([AEEA-AEEA-γGlu-C18 diacid])DFVQWLEA[Aib]G-OH (N-terminus assumed; SMILES CC(C)C[C@H](NC(=O)[C@H](Cc1c[nH]c2ccccc12)NC(=O)[C@H](CCC(N)=O)NC(=O)[C@@H](NC(=O)[C@H](Cc1ccccc1)NC(=O)[C@H](CC(=O)O)NC(=O)[C@H](CCCCNC(=O)COCCOCCNC(=O)COCCOCCNC(=O)CC[C@H](NC(=O)CCCCCCCCCCCCCCCCC(=O)O)C(=O)O)NC(=O)[C@H](C)NC(=O)[C@H](CCCNC(=N)N)NC(=O)[C@H](CCC(=O)O)NC(=O)[C@H](CO)NC(=O)[C@H](CC(=O)O)NC(=O)[C@H](CC(C)C)NC(=O)[C@](C)(Cc1ccccc1)NC(=O)[C@H](CCCCN)NC(=O)[C@H](CO)NC(=O)[C@@H](NC(=O)[C@H](CC(=O)O)NC(=O)[C@H](CO)NC(=O)[C@@H](NC(=O)[C@H](Cc1ccccc1)NC(=O)[C@@H](NC(=O)CNC(=O)[C@H](CCC(N)=O)NC(=O)C(C)(C)NC(=O)[C@@H](N)Cc1c[nH]cn1)[C@@H](C)O)[C@@H](C)O)C(C)C)C(C)C)C(=O)N[C@@H](CCC(=O)O)C(=O)N[C@@H](C)C(=O)NC(C)(C)C(=O)NCC(=O)O) [Peptide 525]	177 pM	2450 pM	–
HXHGTFTSDVSKXLDSQAAQDFVXWIANT (Aib at 2; αMePhe at 13; K(γE-C18diacid)24; C-terminal amide) [Peptide 346]	–	–	7320 pM
H[Aib]QGTFTSDVSE[αMeF]LDSERAK([AEEA-AEEA-γGlu-C18 diacid])DFVRWLEAGG-OH (not fully specified) [Peptide 524]	366 pM	> 24400 pM	–
H[Aib]QGTFTSDVSK[αMeF]LDSERAK([AEEA-AEEA-γGlu-C18 diacid])DFVAWLEA[Aib]G-OH (N-terminus assumed; SMILES CC(C)C[C@H](NC(=O)[C@H](Cc1c[nH]c2ccccc12)NC(=O)[C@H](C)NC(=O)[C@@H](NC(=O)[C@H](Cc1ccccc1)NC(=O)[C@H](CC(=O)O)NC(=O)[C@H](CCCCNC(=O)COCCOCCNC(=O)COCCOCCNC(=O)CC[C@H](NC(=O)CCCCCCCCCCCCCCCCC(=O)O)C(=O)O)NC(=O)[C@H](C)NC(=O)[C@H](CCCNC(=N)N)NC(=O)[C@H](CCC(=O)O)NC(=O)[C@H](CO)NC(=O)[C@H](CC(=O)O)NC(=O)[C@H](CC(C)C)NC(=O)[C@](C)(Cc1ccccc1)NC(=O)[C@H](CCCCN)NC(=O)[C@H](CO)NC(=O)[C@@H](NC(=O)[C@H](CC(=O)O)NC(=O)[C@H](CO)NC(=O)[C@@H](NC(=O)[C@H](Cc1ccccc1)NC(=O)[C@@H](NC(=O)CNC(=O)[C@H](CCC(N)=O)NC(=O)C(C)(C)NC(=O)[C@@H](N)Cc1c[nH]cn1)[C@@H](C)O)[C@@H](C)O)C(C)C)C(C)C)C(=O)N[C@@H](CCC(=O)O)C(=O)N[C@@H](C)C(=O)NC(C)(C)C(=O)NCC(=O)O) [Peptide 526]	194 pM	690 pM	–
H[Aib]QGTFTSDVSK[αMeF]LDSERAK([AEEA-AEEA-γGlu-C20 diacid])DFVAWLEAGG-OH (N-terminus assumed; SMILES CC(C)C[C@H](NC(=O)[C@H](Cc1c[nH]c2ccccc12)NC(=O)[C@H](C)NC(=O)[C@@H](NC(=O)[C@H](Cc1ccccc1)NC(=O)[C@H](CC(=O)O)NC(=O)[C@H](CCCCNC(=O)COCCOCCNC(=O)COCCOCCNC(=O)CC[C@H](NC(=O)CCCCCCCCCCCCCCCCCCC(=O)O)C(=O)O)NC(=O)[C@H](C)NC(=O)[C@H](CCCNC(=N)N)NC(=O)[C@H](CCC(=O)O)NC(=O)[C@H](CO)NC(=O)[C@H](CC(=O)O)NC(=O)[C@H](CC(C)C)NC(=O)[C@](C)(Cc1ccccc1)NC(=O)[C@H](CCCCN)NC(=O)[C@H](CO)NC(=O)[C@@H](NC(=O)[C@H](CC(=O)O)NC(=O)[C@H](CO)NC(=O)[C@@H](NC(=O)[C@H](Cc1ccccc1)NC(=O)[C@@H](NC(=O)CNC(=O)[C@H](CCC(N)=O)NC(=O)C(C)(C)NC(=O)[C@@H](N)Cc1c[nH]cn1)[C@@H](C)O)[C@@H](C)O)C(C)C)C(C)C)C(=O)N[C@@H](CCC(=O)O)C(=O)N[C@@H](C)C(=O)NCC(=O)NCC(=O)O) [Peptide 523]	615 pM	> 24700 pM	–
H[Aib]QGTFTSDVSK[αMeF]LDSERAK([AEEA-AEEA-γGlu-C18 diacid])DFVAWLEAGG-OH (N-terminus assumed; SMILES CC(C)C[C@H](NC(=O)[C@H](Cc1c[nH]c2ccccc12)NC(=O)[C@H](C)NC(=O)[C@@H](NC(=O)[C@H](Cc1ccccc1)NC(=O)[C@H](CC(=O)O)NC(=O)[C@H](CCCCNC(=O)COCCOCCNC(=O)COCCOCCNC(=O)CC[C@H](NC(=O)CCCCCCCCCCCCCCCCC(=O)O)C(=O)O)NC(=O)[C@H](C)NC(=O)[C@H](CCCNC(=N)N)NC(=O)[C@H](CCC(=O)O)NC(=O)[C@H](CO)NC(=O)[C@H](CC(=O)O)NC(=O)[C@H](CC(C)C)NC(=O)[C@](C)(Cc1ccccc1)NC(=O)[C@H](CCCCN)NC(=O)[C@H](CO)NC(=O)[C@@H](NC(=O)[C@H](CC(=O)O)NC(=O)[C@H](CO)NC(=O)[C@@H](NC(=O)[C@H](Cc1ccccc1)NC(=O)[C@@H](NC(=O)CNC(=O)[C@H](CCC(N)=O)NC(=O)C(C)(C)NC(=O)[C@@H](N)Cc1c[nH]cn1)[C@@H](C)O)[C@@H](C)O)C(C)C)C(C)C)C(=O)N[C@@H](CCC(=O)O)C(=O)N[C@@H](C)C(=O)NCC(=O)NCC(=O)O) [Peptide 522]	508 pM	6360 pM	–
H[Aib]QGTFTSDVSK[αMeF]LDSRAAKDFVQWIANT-NH2 (not fully specified (residue 20)) [Peptide 343]	198 pM	19600 pM	–
H[Aib]QGS[αMeF]TSDVSK[αMeF]LDSRAAK([AEEA-AEEA-γGlu-γGlu-C20 diacid])D[αMeF]VQ[Aib]IANT-NH2 [Peptide 322]	68.3 pM	> 24700 pM	–
HS[NMeQ]GS[αMeF]TSDVSK[αMeF]LDSRAAK([AEEA-AEEA-γGlu-C18 diacid])D[αMeF]VQ[Aib]IANT-NH2 (N-terminus assumed; SMILES CC[C@H](C)[C@H](NC(=O)C(C)(C)NC(=O)[C@H](CCC(N)=O)NC(=O)[C@@H](NC(=O)[C@](C)(Cc1ccccc1)NC(=O)[C@H](CC(=O)O)NC(=O)[C@H](CCCCNC(=O)COCCOCCNC(=O)COCCOCCNC(=O)CC[C@H](NC(=O)CCCCCCCCCCCCCCCCC(=O)O)C(=O)O)NC(=O)[C@H](C)NC(=O)[C@H](C)NC(=O)[C@H](CCCNC(=N)N)NC(=O)[C@H](CO)NC(=O)[C@H](CC(=O)O)NC(=O)[C@H](CC(C)C)NC(=O)[C@](C)(Cc1ccccc1)NC(=O)[C@H](CCCCN)NC(=O)[C@H](CO)NC(=O)[C@@H](NC(=O)[C@H](CC(=O)O)NC(=O)[C@H](CO)NC(=O)[C@@H](NC(=O)[C@](C)(Cc1ccccc1)NC(=O)[C@H](CO)NC(=O)CNC(=O)[C@H](CCC(N)=O)N(C)C(=O)[C@H](CO)NC(=O)[C@@H](N)Cc1c[nH]cn1)[C@@H](C)O)C(C)C)C(C)C)C(=O)N[C@@H](C)C(=O)N[C@@H](CC(N)=O)C(=O)N[C@H](C(N)=O)[C@@H](C)O) [Peptide 325]	929 pM	> 25500 pM	–
H[Aib]QGTFTSDYSK[αMeF]LDSRRAK([γGlu-C18 diacid])DFVQWLL[Aib]E-OH (N-terminus assumed; SMILES CC(C)C[C@H](NC(=O)[C@H](Cc1c[nH]c2ccccc12)NC(=O)[C@H](CCC(N)=O)NC(=O)[C@@H](NC(=O)[C@H](Cc1ccccc1)NC(=O)[C@H](CC(=O)O)NC(=O)[C@H](CCCCNC(=O)CC[C@H](NC(=O)CCCCCCCCCCCCCCCCC(=O)O)C(=O)O)NC(=O)[C@H](C)NC(=O)[C@H](CCCNC(=N)N)NC(=O)[C@H](CCCNC(=N)N)NC(=O)[C@H](CO)NC(=O)[C@H](CC(=O)O)NC(=O)[C@H](CC(C)C)NC(=O)[C@](C)(Cc1ccccc1)NC(=O)[C@H](CCCCN)NC(=O)[C@H](CO)NC(=O)[C@H](Cc1ccc(O)cc1)NC(=O)[C@H](CC(=O)O)NC(=O)[C@H](CO)NC(=O)[C@@H](NC(=O)[C@H](Cc1ccccc1)NC(=O)[C@@H](NC(=O)CNC(=O)[C@H](CCC(N)=O)NC(=O)C(C)(C)NC(=O)[C@@H](N)Cc1c[nH]cn1)[C@@H](C)O)[C@@H](C)O)C(C)C)C(=O)N[C@@H](CC(C)C)C(=O)NC(C)(C)C(=O)N[C@@H](CCC(=O)O)C(=O)O) [Peptide 340]	312 pM	94.7 pM	–
HS[β‑dimethylGln]GS[αMeF]TSDVSK[αMeF]LDSRAAK([AEEA-AEEA-γGlu-C18 diacid])D[αMeF]VQ[Aib]IANT-NH2 (N-terminus assumed; SMILES CC[C@H](C)[C@H](NC(=O)C(C)(C)NC(=O)[C@H](CCC(N)=O)NC(=O)[C@@H](NC(=O)[C@](C)(Cc1ccccc1)NC(=O)[C@H](CC(=O)O)NC(=O)[C@H](CCCCNC(=O)COCCOCCNC(=O)COCCOCCNC(=O)CC[C@H](NC(=O)CCCCCCCCCCCCCCCCC(=O)O)C(=O)O)NC(=O)[C@H](C)NC(=O)[C@H](C)NC(=O)[C@H](CCCNC(=N)N)NC(=O)[C@H](CO)NC(=O)[C@H](CC(=O)O)NC(=O)[C@H](CC(C)C)NC(=O)[C@](C)(Cc1ccccc1)NC(=O)[C@H](CCCCN)NC(=O)[C@H](CO)NC(=O)[C@@H](NC(=O)[C@H](CC(=O)O)NC(=O)[C@H](CO)NC(=O)[C@@H](NC(=O)[C@](C)(Cc1ccccc1)NC(=O)[C@H](CO)NC(=O)CNC(=O)[C@@H](NC(=O)[C@H](CO)NC(=O)[C@@H](N)Cc1c[nH]cn1)C(C)(C)CC(N)=O)[C@@H](C)O)C(C)C)C(C)C)C(=O)N[C@@H](C)C(=O)N[C@@H](CC(N)=O)C(=O)N[C@H](C(N)=O)[C@@H](C)O) [Peptide 324]	1330 pM	1930 pM	–
H[Aib]QGTFTSDVSK[αMeF]LDSRAAK([AEEA-AEEA-γGlu-C18 diacid])DFVQWIANT-NH2 (not fully specified) [Peptide 318]	55.2 pM	12000 pM	–
